The text below walks through data of paper PMC5932218 (Structure (London, England : 1993), 2018).

The term Kd denotes a measure of binding affinity in units of concentration. A high value points to weaker binding. Broadly, the stoichiometry N is a count of units in the complex or per binding partner.

Series [1] concerns the target T1, calmodulin (CaM) (Homo sapiens, UniProt P0DP25). Description: Isothermal titration calorimetry of CaM binding to NaV IG peptides. The conditions noted are these: for effect of truncation of the IG peptide on CaM affinity: N- and C-terminally truncated IG peptides, Ca2+ present; for stoichiometry: 1:1 binding model. A general note: Isothermal titration calorimetry measures the heat released or taken up as one component is titrated into another.

The nature of series [2]: Solubility of IG peptide in ITC buffers. In kind it is physicochemical. The note with it: under higher ionic strength conditions.
Series [3] concerns the target T1, calmodulin (CaM). Description: NMR analysis of Ca2+-loaded CaM binding to wild type versus mutant IG peptides. The conditions noted are these: 15N-enriched IG peptide with CaM, intermediate versus slow exchange.
Series [4] deals with calmodulin (CaM). The conditions noted are these: ref (15); cited from earlier work.
The target in series [5] is NaV1.5 inactivation gate peptide Q1483-A1529 (human) (UniProt Q14524). Description: SAXS.
The target in series [6] is NaV1.4 inactivation gate peptide (aligned to NaV1.5 Q1483-A1529) (human). In words: ITC.
For series [7], the target named is NaV1.6 inactivation gate peptide (aligned to NaV1.5 Q1483-A1529) (human). Description: ITC.
Series [8] concerns the target NaV1.5 inactivation gate peptide D1471-V1532 (full-length IG, 62 residues) (human) (UniProt Q14524). In words: ITC.
Series [9] deals with NaV1.5 inactivation gate peptide Q1483-A1529 (human) (UniProt Q14524). Description: ITC.
The target in series [10] is NaV1.2 inactivation gate peptide (aligned to NaV1.5 Q1483-A1529) (human). In words: ITC.
Series [11] concerns the target NaV1.5 inactivation gate peptide Q1483-A1529 (human) (UniProt Q14524). In words: SEC-MALS. On the technique in general: SEC sorts molecules by how far they enter the pores of the column.
The target is the same in series [12]. Description: NMR titration.
Where [13] appears, read: ITC, in the presence of Ca2+, lower ionic strength buffer.
Setting [14] is: ITC, 20 mM TRIS, 50 mM NaCl, 1 mM CaCl2, pH 7.4, triplicate, ± SD.

Chain of NaV1.5 inactivation gate peptide D1471-V1532 (full-length IG, 62 residues) (human) (Q14524 1471-1532, tags left off): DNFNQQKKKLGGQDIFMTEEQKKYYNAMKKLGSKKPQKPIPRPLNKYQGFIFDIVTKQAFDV

As to “D1471-V1532: 62-residue peptide corresponding to the full-length NaV1.5 inactivation gate (IG)”, the “CaM interaction in the absence of Ca2+” value with calmodulin (CaM) [1] (ITC, absence of Ca2+) is “no interaction was observed”. In the series with calmodulin (CaM) [1] (setting [13]), the ΔH was -9.3 ± 0.1 kcal/mol and the ΔS turned out to be 5.2 ± 1.1 cal/mol•deg. For the same substance, the solubility entry in [2] is recorded as “limited solubility”.
“D1523: NaV1.5 IG peptide with the C terminus truncated to D1523”: in the series with calmodulin (CaM) [1] (ITC), the “effect of truncation of the IG peptide on CaM affinity” value was “reduced affinity into the μM range”.
For “H-GPGSQDIFMTEEQKKYYNAMKKLGSKKPQKPIPRPLNKIQGIVFDFVTQQA-OH [NaV 1.6]”, at calmodulin (CaM) [1] (setting [14]), the stoichiometry is recorded as 1.03 ± 0.01, the “ΔH” value is -9.0 ± 0.2 kcal/mol and the “ΔS (cal/mol•deg)” value is 2.5 ± 1.1 cal/mol•deg. Besides, the affinity on calmodulin (CaM) [1] (SD), expressed as Kd, was 82 ± 20 nM.
Consider “H-GPGSQDIFMTEEQKKYYNAMKKLGSKKPQKPIPRPQNKIQGMVYDLVTKQA-OH [NaV 1.4]”, for which, at calmodulin (CaM) [1] (setting [14]), the stoichiometry worked out at 1.06 ± 0.01, the “ΔH” value was -8.8 ± 0.3 kcal/mol and the “ΔS (cal/mol•deg)” value amounted to 3.8 ± 1.3 cal/mol•deg.
For “IG peptide double mutant: IG peptide with both the Y1494L (Site A) and F1522L (Site B) mutations”, the “affinity of CaM for the variant IG peptide relative to WT” value with calmodulin (CaM) [3] is reported as “significant reduction in the affinity”.
For the substance “Q1483: NaV1.5 IG peptide with the N terminus truncated to Q1483”, the “effect of truncation of the IG peptide on CaM affinity” value with calmodulin (CaM) [1] (ITC) is given as “no effect on CaM affinity”.
Turning to “T1526: NaV1.5 IG peptide with the C terminus truncated to T1526”, the “effect of truncation of the IG peptide on CaM affinity” value in the series with calmodulin (CaM) [1] (ITC) is recorded as “reduced affinity into the μM range”.
In the case of “Y1494A: Y1494A site A mutant of the IG from a previous study”, the “effect of Y1494A site A mutation on CaM affinity” value in the series with calmodulin (CaM) [4] is “substantially reduced”.
Turning to “calmodulin (CaM), Ca2+-loaded unless stated (from UniProt P0DP25 1-149) (natural protein)”, the stoichiometry N in series [5] was determined as 1; in series [6], 1.06; in series [7], 1.03; in series [10], 1.02; in series [11], 1; in series [12], 1. For the same substance, the Kd in [7] is 82 nM. Besides, the dH was -9.3 kcal/mol in [8] and -5.8 kcal/mol in series [9].
